The data set has as its system Escherichia coli TOP10. As to the kind of experiment: shrunken log2 fold change of peptide-encoding DNA abundance (4.5 h post-induction vs induction); higher = less antimicrobial activity (less host growth inhibition). Particulars: time post-induction: 4.5 h; library: site-saturation at positions 5, 18, 19, 20.

Results on 125 sequences are retold here after the supplement of paper PMC9112550, “Optimization of the antimicrobial peptide Bac7 by deep mutational scanning” (BMC Biology, 2022).
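Also: peptides expressed intracellularly from a pBAD plasmid library in pooled LB shake-flask culture, induced with 0.3% L-arabinose, DNA abundance read by NGS, three biological replicates, DESeq2 with apeglm shrinkage.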

As to RRIRKRPPRLPRPRPRPADEPRP, the “shrunken log2 fold change” value is 0.19.

Take RRIRGRPPRLPRPRPRPQWYPRP: the “shrunken log2 fold change” value amounted to 0.25.

Turning to RRIRLRPPRLPRPRPRPHLIPRP, the “shrunken log2 fold change” value is -0.151.

Turning to RRIRFRPPRLPRPRPRPVQEPRP, the “shrunken log2 fold change” value was 0.0623.

For RRIRKRPPRLPRPRPRPGVCPRP, the “shrunken log2 fold change” value stood at 0.87.

Consider RRIRNRPPRLPRPRPRPWMGPRP, for which the “shrunken log2 fold change” value is -0.558.

As to RRIRLRPPRLPRPRPRPVTNPRP, the “shrunken log2 fold change” value is -0.0302.

On to RRIRFRPPRLPRPRPRPFLEPRP, for which the “shrunken log2 fold change” value was -0.355.

As to RRIRWRPPRLPRPRPRPECEPRP, the “shrunken log2 fold change” value is 0.912.

In the case of RRIRHRPPRLPRPRPRPLHDPRP, the “shrunken log2 fold change” value was -0.277.

Turning to RRIRVRPPRLPRPRPRPMFSPRP, the “shrunken log2 fold change” value was -0.284.

For the sequence RRIRMRPPRLPRPRPRPATDPRP, the “shrunken log2 fold change” value came to 0.843.

With RRIRDRPPRLPRPRPRPLPPPRP, the “shrunken log2 fold change” value was determined as 0.306.

On to RRIRERPPRLPRPRPRPRPHPRP, for which the “shrunken log2 fold change” value was 0.791.

As for RRIRWRPPRLPRPRPRPSSFPRP, the “shrunken log2 fold change” value was -0.00317.

Take RRIRFRPPRLPRPRPRPKTWPRP: the “shrunken log2 fold change” value stood at 0.157.

For RRIRRRPPRLPRPRPRPYPCPRP, the “shrunken log2 fold change” value was determined as 0.253.

RRIRKRPPRLPRPRPRPIPAPRP: the “shrunken log2 fold change” value was found to be 0.945.

As for RRIRFRPPRLPRPRPRPHRTPRP, the “shrunken log2 fold change” value is -0.18.

With RRIRMRPPRLPRPRPRPERDPRP, the “shrunken log2 fold change” value came out at 2.25.

In the case of RRIRTRPPRLPRPRPRPGGTPRP, the “shrunken log2 fold change” value was -0.00579.

Take RRIRGRPPRLPRPRPRPKEPPRP: the “shrunken log2 fold change” value is 0.875.

Regarding RRIRYRPPRLPRPRPRPKMDPRP, the “shrunken log2 fold change” value was determined as 0.0399.

For the sequence RRIRMRPPRLPRPRPRPVIFPRP, the “shrunken log2 fold change” value is -0.237.

Turning to RRIRWRPPRLPRPRPRPRYWPRP, the “shrunken log2 fold change” value stood at 0.185.

Turning to RRIRYRPPRLPRPRPRPSWYPRP, the “shrunken log2 fold change” value was -0.772.

For the sequence RRIRARPPRLPRPRPRPDRQPRP, the “shrunken log2 fold change” value was found to be 0.0329.

With RRIRHRPPRLPRPRPRPFTWPRP, the “shrunken log2 fold change” value is -0.408.

Consider RRIRFRPPRLPRPRPRPNLFPRP, for which the “shrunken log2 fold change” value was -0.0917.

For RRIRGRPPRLPRPRPRPLNQPRP, the “shrunken log2 fold change” value stood at 0.725.

As to RRIRFRPPRLPRPRPRPQCWPRP, the “shrunken log2 fold change” value was determined as 0.0388.

With RRIRSRPPRLPRPRPRPVQSPRP, the “shrunken log2 fold change” value is -0.0536.

Consider RRIRWRPPRLPRPRPRPQFCPRP, for which the “shrunken log2 fold change” value is -0.0503.

Regarding RRIRERPPRLPRPRPRPLFSPRP, the “shrunken log2 fold change” value is -0.364.

As for RRIRTRPPRLPRPRPRPLAFPRP, the “shrunken log2 fold change” value was 2.19.

In the case of RRIRKRPPRLPRPRPRPEPIPRP, the “shrunken log2 fold change” value was -0.0204.

Take RRIRRRPPRLPRPRPRPITVPRP: the “shrunken log2 fold change” value was -0.179.

With RRIRERPPRLPRPRPRPYKHPRP, the “shrunken log2 fold change” value is -0.684.

RRIRKRPPRLPRPRPRPQVQPRP: the “shrunken log2 fold change” value amounted to 0.131.

For RRIRCRPPRLPRPRPRPRNRPRP, the “shrunken log2 fold change” value worked out at 0.239.

RRIRCRPPRLPRPRPRPGSYPRP: the “shrunken log2 fold change” value is -0.525.

Turning to RRIRFRPPRLPRPRPRPVRTPRP, the “shrunken log2 fold change” value was determined as 0.227.

With RRIRGRPPRLPRPRPRPMMRPRP, the “shrunken log2 fold change” value is 1.01.

As for RRIRNRPPRLPRPRPRPVIGPRP, the “shrunken log2 fold change” value is -0.00814.

As for RRIRCRPPRLPRPRPRPMYPPRP, the “shrunken log2 fold change” value was -0.375.

As to RRIRDRPPRLPRPRPRPLKGPRP, the “shrunken log2 fold change” value is -0.0274.

Take RRIRQRPPRLPRPRPRPVRTPRP: the “shrunken log2 fold change” value was 0.0701.

Take RRIRERPPRLPRPRPRPLGHPRP: the “shrunken log2 fold change” value turned out to be 0.187.

In the case of RRIRMRPPRLPRPRPRPGPIPRP, the “shrunken log2 fold change” value came out at 0.115.

Regarding RRIRMRPPRLPRPRPRPLKKPRP, the “shrunken log2 fold change” value came out at 0.349.

As to RRIRRRPPRLPRPRPRPSNHPRP, the “shrunken log2 fold change” value is -0.396.

For RRIRIRPPRLPRPRPRPMGIPRP, the “shrunken log2 fold change” value was determined as 0.000142.

Take RRIRARPPRLPRPRPRPLRRPRP: the “shrunken log2 fold change” value worked out at 1.15.

As to RRIRRRPPRLPRPRPRPSIEPRP, the “shrunken log2 fold change” value is -0.232.

Regarding RRIRERPPRLPRPRPRPPQYPRP, the “shrunken log2 fold change” value is -0.517.

On to RRIRFRPPRLPRPRPRPTMAPRP, for which the “shrunken log2 fold change” value came out at 0.185.

As for RRIRSRPPRLPRPRPRPVRLPRP, the “shrunken log2 fold change” value worked out at 0.196.

RRIRCRPPRLPRPRPRPMPYPRP: the “shrunken log2 fold change” value is -0.189.

Consider RRIRIRPPRLPRPRPRPRDMPRP, for which the “shrunken log2 fold change” value is -0.902.

For RRIRARPPRLPRPRPRPKILPRP, the “shrunken log2 fold change” value was -0.168.

Take RRIRKRPPRLPRPRPRPRHDPRP: the “shrunken log2 fold change” value was 0.254.

RRIRGRPPRLPRPRPRPQSCPRP: the “shrunken log2 fold change” value is 0.195.

Consider RRIRERPPRLPRPRPRPYDAPRP, for which the “shrunken log2 fold change” value turned out to be 0.835.

Turning to RRIRCRPPRLPRPRPRPLLCPRP, the “shrunken log2 fold change” value is -0.163.

As for RRIRDRPPRLPRPRPRPAIVPRP, the “shrunken log2 fold change” value is 0.41.

Consider RRIRQRPPRLPRPRPRPCIIPRP, for which the “shrunken log2 fold change” value was -0.0528.

As to RRIRSRPPRLPRPRPRPTETPRP, the “shrunken log2 fold change” value was 0.0721.

As to RRIRQRPPRLPRPRPRPASAPRP, the “shrunken log2 fold change” value was determined as 0.196.

Consider RRIRRRPPRLPRPRPRPTMRPRP, for which the “shrunken log2 fold change” value was 0.667.

For the sequence RRIRDRPPRLPRPRPRPHHTPRP, the “shrunken log2 fold change” value was -1.13.

Regarding RRIRWRPPRLPRPRPRPFNGPRP, the “shrunken log2 fold change” value was -0.0132.

Turning to RRIRLRPPRLPRPRPRPKCVPRP, the “shrunken log2 fold change” value came out at 0.0912.

Take RRIRCRPPRLPRPRPRPNRQPRP: the “shrunken log2 fold change” value is -0.216.

As for RRIRCRPPRLPRPRPRPEHVPRP, the “shrunken log2 fold change” value was 0.229.

For the sequence RRIRGRPPRLPRPRPRPNHQPRP, the “shrunken log2 fold change” value came out at 0.0643.

As to RRIRRRPPRLPRPRPRPMTKPRP, the “shrunken log2 fold change” value was found to be 0.0629.

As for RRIRQRPPRLPRPRPRPKLWPRP, the “shrunken log2 fold change” value is -0.0821.

As for RRIRWRPPRLPRPRPRPWMSPRP, the “shrunken log2 fold change” value is -0.353.

In the case of RRIRRRPPRLPRPRPRPNNAPRP, the “shrunken log2 fold change” value was -0.18.

On to RRIRSRPPRLPRPRPRPGWKPRP, for which the “shrunken log2 fold change” value was determined as 0.0342.

Consider RRIRHRPPRLPRPRPRPPTDPRP, for which the “shrunken log2 fold change” value is -0.254.

With RRIRTRPPRLPRPRPRPHMAPRP, the “shrunken log2 fold change” value was -0.123.

RRIRGRPPRLPRPRPRPHYMPRP: the “shrunken log2 fold change” value came to 0.00569.

Take RRIRTRPPRLPRPRPRPYRDPRP: the “shrunken log2 fold change” value was -0.383.

Take RRIRPRPPRLPRPRPRPWFGPRP: the “shrunken log2 fold change” value is -0.0238.

Turning to RRIRERPPRLPRPRPRPWKAPRP, the “shrunken log2 fold change” value is 0.0158.

On to RRIRARPPRLPRPRPRPHYCPRP, for which the “shrunken log2 fold change” value is -0.17.

As for RRIRMRPPRLPRPRPRPGVCPRP, the “shrunken log2 fold change” value was 0.535.

Regarding RRIRNRPPRLPRPRPRPGYAPRP, the “shrunken log2 fold change” value was -0.0974.

Take RRIRIRPPRLPRPRPRPYFMPRP: the “shrunken log2 fold change” value was -1.21.

Consider RRIRARPPRLPRPRPRPKMFPRP, for which the “shrunken log2 fold change” value is -0.0487.

As for RRIRIRPPRLPRPRPRPRHKPRP, the “shrunken log2 fold change” value is -0.704.

For the sequence RRIRSRPPRLPRPRPRPAVMPRP, the “shrunken log2 fold change” value was found to be 0.139.

Regarding RRIRNRPPRLPRPRPRPNKPPRP, the “shrunken log2 fold change” value is -0.122.

Turning to RRIRVRPPRLPRPRPRPVIDPRP, the “shrunken log2 fold change” value came out at 0.0104.

For RRIRHRPPRLPRPRPRPYNLPRP, the “shrunken log2 fold change” value is -0.302.

Take RRIRTRPPRLPRPRPRPPVDPRP: the “shrunken log2 fold change” value is 0.244.

As for RRIRTRPPRLPRPRPRPWNIPRP, the “shrunken log2 fold change” value was determined as 0.0303.

For the sequence RRIRFRPPRLPRPRPRPHIEPRP, the “shrunken log2 fold change” value is -0.0641.

As for RRIRYRPPRLPRPRPRPVARPRP, the “shrunken log2 fold change” value is -0.206.

As to RRIRSRPPRLPRPRPRPQFAPRP, the “shrunken log2 fold change” value amounted to 0.105.

RRIRQRPPRLPRPRPRPWCAPRP: the “shrunken log2 fold change” value was found to be 0.0231.

RRIRQRPPRLPRPRPRPKDHPRP: the “shrunken log2 fold change” value was -0.185.

As for RRIRDRPPRLPRPRPRPRGFPRP, the “shrunken log2 fold change” value is 0.586.

In the case of RRIRDRPPRLPRPRPRPSYVPRP, the “shrunken log2 fold change” value is -0.206.

As for RRIRFRPPRLPRPRPRPHLFPRP, the “shrunken log2 fold change” value is -0.238.

On to RRIRDRPPRLPRPRPRPDKKPRP, for which the “shrunken log2 fold change” value was determined as 0.0252.

As to RRIRGRPPRLPRPRPRPMYYPRP, the “shrunken log2 fold change” value is 0.197.

Take RRIRDRPPRLPRPRPRPSGQPRP: the “shrunken log2 fold change” value was -0.0305.

For the sequence RRIRYRPPRLPRPRPRPDSGPRP, the “shrunken log2 fold change” value is -0.0811.

Regarding RRIRQRPPRLPRPRPRPQVWPRP, the “shrunken log2 fold change” value was -0.0346.

As for RRIRLRPPRLPRPRPRPSLLPRP, the “shrunken log2 fold change” value was -0.254.

Regarding RRIRCRPPRLPRPRPRPSRPPRP, the “shrunken log2 fold change” value came out at 0.245.

In the case of RRIRERPPRLPRPRPRPPQDPRP, the “shrunken log2 fold change” value is 0.113.

With RRIRIRPPRLPRPRPRPMFPPRP, the “shrunken log2 fold change” value was -0.724.

In the case of RRIRYRPPRLPRPRPRPYYFPRP, the “shrunken log2 fold change” value is -2.19.

For RRIRYRPPRLPRPRPRPTVFPRP, the “shrunken log2 fold change” value is -0.317.

For RRIRERPPRLPRPRPRPDFAPRP, the “shrunken log2 fold change” value was found to be 0.159.

RRIRYRPPRLPRPRPRPDREPRP: the “shrunken log2 fold change” value is -0.15.

Consider RRIRIRPPRLPRPRPRPAQNPRP, for which the “shrunken log2 fold change” value is -0.0711.

With RRIRMRPPRLPRPRPRPCKRPRP, the “shrunken log2 fold change” value turned out to be 0.00656.

For the sequence RRIRWRPPRLPRPRPRPCTHPRP, the “shrunken log2 fold change” value was 0.0298.

Regarding RRIRHRPPRLPRPRPRPQEPPRP, the “shrunken log2 fold change” value was -0.136.

As for RRIRNRPPRLPRPRPRPEAYPRP, the “shrunken log2 fold change” value was found to be 0.0274.

With RRIRARPPRLPRPRPRPAPGPRP, the “shrunken log2 fold change” value stood at 0.972.
